The chains are these.
B1: Aurora A wild-type kinase domain (untagged) (domain or fragment)
chain: FEIGRPLGKGKFGNVYLAREKQSKFILALKVLFKAQLEKAGVEHQLRREVEIQSHLRHPNILRLYGYFHDATRVYLILEYAPLGTVYRELQKLSKFDEQRTATYITELANALSYCHSKRVIHRDIKPENLLLGSAGELKIADFGWSVHAPSSRRTTLCGTLDYLPPEMIEGRMHDEKVDLWSLGVLCYEFLVGKPPFEANTYQETYKRISRVEFTFPDFVTEGARDLISRLLKHNPSQRPMLREVLEHPWI
B2: Alexa Fluor 488-TPX2_((7–43)) peptide (peptide)
peptide: LSYSYDAPSDFINFSSLDDEGDTQNIDSWFEEKANLENLKGGGC(Alexa Fluor 488‑maleimide)QM
notes: residue before the TPX2 stretch in the printed peptide; TPX2, human, residues 7-43; C-terminal extension of the printed peptide with the cysteine that is labelled; As m10, labelled; the methods speak of 'free N-terminal cysteines' but the only cysteine of the printed peptide is near its C-terminus; also called Alexa Fluor 488-labeled TPX2 peptide; labeled wild-type TPX2 peptide; source: E. coli …
B3: linear TPX2_((7–43)) peptide (peptide)
peptide: LSYSYDAPSDFINFSSLDDEGDTQNIDSWFEEKANLENLKGGGCQM
notes: residue before the TPX2 stretch in the printed peptide; TPX2, human, residues 7-43; C-terminal extension of the printed peptide with the cysteine handle; Used free in ITC and immobilised through the cysteine on CM5 in SPR; also called TPX2 peptide; TPX-2 peptide; source: E. coli BL21(DE3), KSI fusion (pET31b), inclusion bodies, Ni-NTA, CNBr cleavage, reverse-phase HPLC

Ends that are not written are not given here.

Settings in all cases: both partners purified
In assay [1] the target is B2. In words: fluorescence polarisation; fluorescence anisotropy, direct titration of Aurora A wild type into 10 nM Alexa Fluor 488-TPX2 peptide, 25°C, HEPES pH 7.4, 0.1 M Mg(CH3COO)2, 100 mM NaCl, 1 mM ATP, 1 mM DTT, 0.01% P20; quadratic single-site equation. A general note: Polarisation of emitted light reports the rotation of a fluorescent probe.
In assay [2] the target is T1, Aurora A_(D274N) kinase domain (human, UniProt O14965 122-403, D274N).
T1 construct: Aurora A kinase, human, kinase domain residues 122-403, kinase dead D274N; theoretical mass 33.8 kDa; Cloned into pHAT5 in frame with a C-terminal 6xHis-tag; also called kinase dead human Aurora A D274N mutant; source: E. coli BL21(DE3), purified (HisTrap HP, Superdex 75 SEC); not shown: His6, C-terminal, kept
T1 sequence (looked up): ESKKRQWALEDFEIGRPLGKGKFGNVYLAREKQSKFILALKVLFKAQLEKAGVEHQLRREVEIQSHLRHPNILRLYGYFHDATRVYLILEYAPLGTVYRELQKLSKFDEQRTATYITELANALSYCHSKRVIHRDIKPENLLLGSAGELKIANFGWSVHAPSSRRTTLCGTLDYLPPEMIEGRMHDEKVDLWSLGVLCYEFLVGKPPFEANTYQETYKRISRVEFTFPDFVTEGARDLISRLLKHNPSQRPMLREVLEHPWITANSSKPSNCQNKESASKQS
The experiment in a line: fluorescence polarisation; fluorescence anisotropy, direct titration of kinase (CK2α 2 nM-2 μM; Aurora A D274N 2 nM-1.5 μM) into labelled peptide or display protein; 10 mM HEPES pH 7.4, 500 mM NaCl, 1 mM DTT, 0.05% P20; room temperature; 1:1 model.

The target in assay [3] is T1, Aurora A_(D274N) kinase domain. The experiment in a line: ITC; itc200, 25°C, 10 mM HEPES pH 7.4, 500 mM NaCl, 0.05% P20; 50 μM titrant into 5 μM Aurora A D274N, 100 μM CK2β peptide or RAD-CK2β into 10 μM CK2α; single-site model.
Assay [4] has the same target. The experiment in a line: SPR; Biacore T100, CM5, peptides or cRAD display proteins immobilised through their cysteine (240-400 RU), kinase as analyte 2.5 nM-2.5 μM, 25°C, 10 mM HEPES pH 7.4, 500 mM NaCl, 0.05% P20; 1:1 steady-state affinity model; CK2α data analysed at 200 s post-injection.

For B1, in assay [1], the dissociation constant (Kd) was determined as 2.1 nM.

For the molecule B2, the affinity in assay [2], expressed as Kd, was 74 nM.

With B3, the dissociation constant Kd is 115 nM in assay [3] and 72 nM in assay [4].

For orientation: Kd means the equilibrium constant for the complex coming apart. Read a high Kd as lower affinity.
